Experimental findings from paper PMC5112522 are described below.

A value given as a limit tells only on which side of the number the result lay.

The target of experiment [1] is Recombinant gp41 protein from HIV-1 (HXB2 strain) (HIV-1 (HXB2 strain)) (UniProt P04578). As to the kind of experiment: SPR; gp120 (115 RUs) and gp41 (45 RUs) amine-coupled on a CM4 chip; lectins as analytes (two-fold dilutions, 0-20 nM HHA, 0-4000 nM Ld WCFS1, 0-1000 nM Ld CMPG5300); 1:1 binding model, apparent KD; 25 °C, Biacore T200, HBS-P pH 7.4 (10 mM HEPES, 150 mM NaCl, 0.05% P20) with 10 mM CaCl2.

Experiment [2] addresses Recombinant gp120 protein from HIV-1 strain IIIB (HIV-1 strain IIIB) (UniProt P04578). Described as above.
Experiment [3] has the same target.

Regarding “Lectin domain of Msl (Cmpg5300.05_29) of Lactobacillus plantarum CMPG5300 (domain or fragment)”, in experiment [1], the Kd was found to be 1.62 µM, the koff turned out to be 0.0288 s⁻¹ and the kon was 22900 M⁻¹ s⁻¹. Moreover, in experiment [2], the Kd was found to be 1.85 µM, the koff is 0.0564 s⁻¹ and the kon is 30500 M⁻¹ s⁻¹. For the same substance, the inhibition of HIV-1 infection in human CD4+ T-lymphocytic C8166 cell and Raji DCSIGN cultures (data not shown) in experiment [3] is above 200 µg/mL.
As for “Lectin domain of Msa (Lp_1229) of Lactobacillus plantarum WCFS1 (from UniProt F9UN23 1-1010) (domain or fragment)”, in experiment [1], the Kd was found to be 3.3 µM, the koff worked out at 0.0236 s⁻¹ and the kon amounted to 7150 M⁻¹ s⁻¹. Further, in experiment [2], the Kd is 6.26 µM, the off-rate constant (koff) was 0.0164 s⁻¹ and the kon turned out to be 2620 M⁻¹ s⁻¹.
For “Hippeastrum hybrid (amaryllis) lectin (HHA) (natural protein)”, in experiment [1], the Kd was found to be 0.000836 µM, the koff came out at 0.00229 s⁻¹ and the kon was 2.75e+06 M⁻¹ s⁻¹. For the same substance, in experiment [2], the Kd worked out at 0.00132 µM, the dissociation rate constant (koff) worked out at 0.00219 s⁻¹ and the kon was determined as 1.66e+06 M⁻¹ s⁻¹.
